Tests used:
GroEL CP376-RW (E. coli) [1] = target: GroEL CP376-RW (E. coli) (UniProt P0A6F5); experiment: SEC; gel filtration profiles observed during purification (AKTA FPLC, 4°C); data not shown
GroEL CP376-RW (E. coli) [2] = target: GroEL CP376-RW (E. coli) (UniProt P0A6F5); experiment: negative-stain electron microscopy; GroEL alone, 0.25 mg/ml in 50 mM triethanolamine pH 7.5, 20 mM MgCl2, 50 mM KCl; 1% uranyl acetate
GroEL CP376 (E. coli) = GroEL CP376 (E. coli) (UniProt P0A6F5); experiment: SEC; gel filtration profiles observed during purification (AKTA FPLC, 4°C); data not shown

Row | stoichiometry N (GroEL CP376-RW (E. coli) [1]) | stoichiometry N (GroEL CP376-RW (E. coli) [2]) | stoichiometry N (GroEL CP376 (E. coli)) | Substance
1 | 14 | 14 | – | GroEL CP376-RW (from UniProt P0A6F5 376-548; P0A6F5 2-374)
2 | – | – | 14 | GroEL CP376 (from UniProt P0A6F5 376-548; P0A6F5 2-374)

From PMC3196576
